The nature of series [1]: Murine hematotoxicity assay. Type of series: in vivo, BALB/c mice. The note with it: 3 mg/kg i.v. QW×4, compared to vehicle or MMAE treatment. On the procedure:
Murine hematotoxicity experiments were conducted at Charles River Laboratories and the care and use of animals was conducted in accordance with the regulations of the Association for Assessment and Accreditation of Laboratory Animal Care (AAALAC). Wild type BALB/c, female, 7-8 weeks, weighing approximately 18-22 g were randomized and dosed intravenously with control or test articles at a QW×4 schedule. Dosing volume was adjusted based on body weight and was administered at 10 mL/Kg. PDCs were dissolved in 25 mM Histidine 10% sucrose pH 7 and 3 mg/kg was administered. Free MMAE payload was also tested, and similarly dissolved in 25 mM Histidine 10% sucrose pH 7 and administered to the mice at a dose of […] by i.v. injection at a QW×4 schedule. 3 days following each dose, 150 μL of whole blood was collected via submandibular method and placed in K2 EDTA tubes stored on ice. Blood neutrophil counts were performed on the day of collection by IDEXX labs. Body weights were recorded twice a week until study endpoint.
As outlined in the material and methods of Example 1, wild type BALB/c, female, 7-8 weeks, weighing approximately 18-22 g were randomized and dosed intravenously with control or test articles at a QW×4 schedule. Dosing volume was adjusted based on body weight and was administered at 10 ml/Kg. […] Free MMAE payload was also tested, and similarly dissolved in 25 mM Histidine 10% sucrose pH 7 and administered to the mice at a dose of […] by i.v. injection at a QW×4 schedule. 3 days following each dose, 150 μL of whole blood was collected via submandibular method and placed in K2 EDTA tubes stored on ice. Blood neutrophil counts were performed on the day of collection by IDEXX labs. Body weights were recorded twice a week until study endpoint.

Series [2] is described as follows: Murine plasma stability assay. The note with it: mouse, 37° C., read-out: Murine plasma stability assay, T1/2. It counts as in vitro ADME. On the procedure: Frozen plasma was thawed at 37° C. and centrifuged at 4000 rpm to remove any clots and transferred to 96-well reaction plates by WuXi AppTec. Test compounds were added to the reaction plate at a final concentration of 2 μM and either stopped immediately or incubated at 37° C. for 5 minutes, 10 minutes, 30 minutes, 60 minutes, or 120 minutes. At the end of incubation, stop solution consisting of 200 ng/mL tolbutamide and 200 ng/mL labetalol in ACN was added to precipitate protein and mixed thoroughly. Samples were then transferred to a bioanalysis plate and shaken for 10 minutes prior to HPLC-MS/MS analysis of percent remaining compound.

The test system of series [3] is MDA-MB-231 tumor cells. The experiment in a line: MDA-MB-231 murine xenograft efficacy model. Type of series: in vivo, BALB/c Nude mice. On the procedure:
Murine xenograft experiments were conducted at WuXi AppTec and/or Charles River Laboratories and the care and use of animals was conducted in accordance with the regulations of the Association for Assessment and Accreditation of Laboratory Animal Care (AAALAC). MDA-MB-231 tumor cells (ATCC, Manassas, VA, cat #HTB-26) were grown and maintained in L15 medium supplemented with 10% heat inactivated fetal bovine serum, 1% Antibiotic-Antimycotic, and L-glutamine (2 mM) at 37° C. in an atmosphere in 5% CO2, 95% air. BALB/c Nude, female, 6-8 weeks, weighing approximately 18-22 g were purchased from Vital River Laboratory Animal Technology Co., LTD. Mice were inoculated subcutaneously at the right flank with MDA-MB-231 tumor cells (e.g., triple negative breast cancer cells) (10×10^6) in 0.2 mL of PBS with Matrigel (1:1) for tumor development. Animals were randomized and treatment was started when the average tumor volume reached approximately 150-200 mm^3 for the efficacy study. Dosing volume was adjusted based on body weight and was administered at 10 ml/Kg. […] Free MMAE payload was also tested, and similarly dissolved in 25 mM Histidine 10% sucrose pH 7 and one or more of the following doses, 0.6, 0.06 mg/kg, were administered to the mice i.v. at a QW×4 schedule. Tumor sizes were measured twice weekly in two dimensions using a caliper, and the volume in mm^3 calculated using the formula: V=0.5 a×b^2, where a and b are the long and short diameters of the tumor, respectively. TGI was calculated for each group using the formula: TGI (%)=[1−(Ti−T0)/(Vi−V0)]×100; where Ti is the average tumor volume of a treatment group on a given day, T0 is the average tumor volume of the treatment group on the first day of treatment, Vi is the average tumor volume of the vehicle control group on the same day with Ti, and V0 is the average tumor volume of the vehicle group on the first day of treatment.

In series [4] the target is T1, Human SORT1 (78-755)-His (Acrobiosystems) (human, UniProt Q99523 78-755).
T1 construct: range 78-755; Amine-coupled to a CM5 chip in the SPR assay; not shown: His tag
T1 sequence (looked up): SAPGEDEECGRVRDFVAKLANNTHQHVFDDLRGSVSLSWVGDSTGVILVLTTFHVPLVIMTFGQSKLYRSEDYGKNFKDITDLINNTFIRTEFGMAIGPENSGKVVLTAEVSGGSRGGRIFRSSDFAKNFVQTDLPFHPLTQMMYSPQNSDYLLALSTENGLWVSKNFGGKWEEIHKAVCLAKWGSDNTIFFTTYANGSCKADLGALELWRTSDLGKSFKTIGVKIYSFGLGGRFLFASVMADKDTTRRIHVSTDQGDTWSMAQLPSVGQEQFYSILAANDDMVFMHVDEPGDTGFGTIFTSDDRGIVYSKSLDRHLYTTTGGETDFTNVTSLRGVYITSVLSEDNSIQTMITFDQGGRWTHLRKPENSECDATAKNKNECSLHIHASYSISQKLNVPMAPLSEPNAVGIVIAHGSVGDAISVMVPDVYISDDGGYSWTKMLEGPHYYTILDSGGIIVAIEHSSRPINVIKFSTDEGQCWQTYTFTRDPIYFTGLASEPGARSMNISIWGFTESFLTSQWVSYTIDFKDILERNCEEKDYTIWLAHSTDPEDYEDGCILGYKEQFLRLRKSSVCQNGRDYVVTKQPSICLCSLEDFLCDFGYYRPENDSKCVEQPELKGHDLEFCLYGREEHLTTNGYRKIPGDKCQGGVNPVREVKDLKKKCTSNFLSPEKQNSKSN
The experiment in a line: SPR (Biacore 8K), SORT1 amine-coupled to CM5 chip, PDC as analyte, 1:1 kinetic model. The method, then:
SPR analysis was performed on Series S CM5 chips (Cytiva) using a Biacore 8K instrument (Cytiva). Sensorgrams were double-referenced by subtracting the response on both a reference flow cell and a blank sample. Human SORT1 (78-755)-His (Acrobiosystems) was diluted to 60 μg/mL in 10 mM sodium acetate pH 4.5 buffer and immobilized onto Series S CM5 chips using amine coupling at a flow rate of 10 μL/min for 45 s. The final immobilization level of SORT1 was between 2200-2600 RU.
For the multi-cycle kinetics analysis runs, a running buffer of 1×PBS pH 7.4, 0.005% Tween-20 was used. Five start-up cycles and a blank cycle preceded each analysis run. The runs were performed by sequential injections of analyte (0-25 nM) with a 150 seconds (s) association and 300 s dissociation at a flow rate of 30 μL/min, followed by a regeneration with 2 M MgCl₂ for 200 s at a flow rate of 10 μL/min. The kinetic rate constants (kₐ and kd) and the equilibrium binding constant (Kd) were calculated using a 1:1 kinetic binding model on the Biacore Insight Evaluation Software (Cytiva).

The record followed here is patent publication US20240285785A1, “TARGETING SORTILIN” (priority 2022, published 2024).

*1 amine or outer side, *2 acyl side, *3 side chain or, on linkers, in order; H or OH if unused. Bridges are numbered along the chain shown (N, C = ends). Side-chain parts run from the residue outwards. [ ]: non-standard residue; d: D form. VCPAB = valine-citrulline p-aminobenzylcarbamate linker, CC(C)[C@H](N[*:1])C(=O)N[C@@H](CCCNC(N)=O)C(=O)Nc1ccc(COC(=O)[*:2])cc1; tBuAla = CC(C)(C)C[C@H](N)C(=O)O; MMAE = monomethyl auristatin E; Tle = CC(C)(C)[C@H](N)C(=O)O; Nle = CCCC[C@H](N)C(=O)O; βAla = NCCC(=O)O; Sar = CNCC(=O)O

For the molecule `CC[C@H](C)[C@@H]([C@@H](CC(=O)N1CCC[C@H]1[C@H](OC)[C@@H](C)C(=O)N[C@H](C)[C@@H](O)c1ccccc1)OC)N(C)C(=O)[C@@H](NC(=O)[C@H](C(C)C)N(C)C(=O)OCc1ccc(NC(=O)[C@H](CCCNC(N)=O)NC(=O)[C@@H](NC(=O)CCCC(=O)NCCC(=O)N(C)CC(=O)N(C)CC(=O)N(C)CC(=O)N(C)CC(=O)N[C@@H](C)C(=O)N2CCC[C@H]2C(=O)N[C@@H](CCCNC(=N)N)C(=O)N[C@@H](Cc2c[nH]c3ccccc23)C(=O)N[C@@H](CC(=O)O)C(=O)N[C@@H](C)C(=O)N2CCC[C@H]2C(=O)N[C@@H](CC(C)C)C(=O)N[C@@H](CCCNC(=N)N)C(=O)N[C@@H](CC(=O)O)C(=O)N2CCC[C@H]2C(=O)N[C@@H](C)C(=O)N[C@@H](CC(C)C)C(=O)N[C@@H](CCCNC(=N)N)C(=O)N[C@@H](CCC(N)=O)C(=O)N[C@H](C(=O)N[C@@H](CC2CCC2)C(=O)O)C(C)(C)C)C(C)C)cc1)C(C)C` [Arb-SAR-Q15-PDC], the blood neutrophil counts entry in series [1] is “reduced neutrophil counts”. The half-life at 2 μM in series [2] amounted to 49.7 min. The “tumor growth inhibited relative to vehicle” value in series [3] (3 mg/kg i.v. QW×4, day 22 (Example 8)) was 98%. Besides, the body weight loss entry in series [3] (Example 8, PDC 3 mg/kg, free MMAE 0.6 mg/kg, i.v. QW×4) is “body weight loss tracked each other”.
The molecule Ac-RWCENK([Sar-Sar-Sar-Sar-βAla-VCPAB-MMAE])R[Nle]FTCRQ[Tle][tBuAla]-OH (disulfide 3-11, C-term COOH) [Arb_cyclic_G23-PDC] came in with a Kd in series [4] of 0.89 nM.
